According to publication PMC5805389 (Biochemistry, 2016):

B1: human DJ-1, wild type (natural protein)
chain: GSHMASKRALVILAKGAEEMETVIPVDVMRRAGIKVTVAGLAGKDPVQCSRDVVICPDASLEDAKKEGPYDVVVLPGGNLGAQNLSESAAVKEILKEQENRKGLIAAICAGPTALLAHEIGFGSKVTTHPLAKDKMMNGGHYTYSENRVEKDGLILTSRGPGTSFEFALAIVEALNGKEVAAQVKAPLVLKD
B2: human DJ-1 D24N (natural protein)
chain: GSHMASKRALVILAKGAEEMETVIPVNVMRRAGIKVTVAGLAGKDPVQCSRDVVICPDASLEDAKKEGPYDVVVLPGGNLGAQNLSESAAVKEILKEQENRKGLIAAICAGPTALLAHEIGFGSKVTTHPLAKDKMMNGGHYTYSENRVEKDGLILTSRGPGTSFEFALAIVEALNGKEVAAQVKAPLVLKD

Biological target: the molecule itself
Assay: crystal structure

Row | Protein | stoichiometry N | binding result
1 | B1 | 2 | 
2 | B2 |  | binds
